Laboratory results reported in US20190048074A1 (Regeneron, published 2019).
Substitutions are numbered along the chain they refer to. In names and notes the source's numbering stands. Like-named read-outs stand apart in the source and are kept apart here. Values belong to the binder of their own block, whether it stands above or below them.

Tests used:
full-length human APLNR [1] = molecular target: T1, full-length human APLNR (human, UniProt P35414 1-380); test: cell-based or functional assay
T1 sequence: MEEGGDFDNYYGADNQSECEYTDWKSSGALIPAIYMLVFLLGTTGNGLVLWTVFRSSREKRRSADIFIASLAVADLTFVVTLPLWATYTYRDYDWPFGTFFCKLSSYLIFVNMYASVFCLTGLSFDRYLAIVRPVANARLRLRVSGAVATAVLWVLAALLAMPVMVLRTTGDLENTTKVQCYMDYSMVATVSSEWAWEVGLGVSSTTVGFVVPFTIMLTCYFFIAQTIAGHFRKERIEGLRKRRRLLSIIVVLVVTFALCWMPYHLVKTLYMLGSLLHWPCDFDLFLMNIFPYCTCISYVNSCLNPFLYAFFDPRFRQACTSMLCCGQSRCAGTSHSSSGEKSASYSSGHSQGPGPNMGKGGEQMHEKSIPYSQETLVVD

full-length human APLNR [2] = molecular target: T1, full-length human APLNR; test: cell-based or functional assay; remark: listed apart in the source
full-length human APLNR [3] = molecular target: T1, full-length human APLNR; test: FACS, 10 µg/mL antibody, HEK293/CRE-luc/hAPLNR cells
[4] = molecular target: T2, full length cynomolgus APLNR (cynomolgus monkey (Macaca fascicularis), UniProt O97666 1-380 (rhesus entry)); test: FACS, 10 µg/mL antibody, HEK293/CRE-luc/MfAPLNR cells
T2 construct: Stably expressed on HEK293/CRE-luc/MfAPLNR cells; also called MfAPLNR; mfAPLNR
T2 sequence: T1 sequence with F101S, L167F, E194D, I290V

[5] = molecular target: T2, full length cynomolgus APLNR; test: as above; remark: listed apart in the source
full-length human APLNR [6] = molecular target: T1, full-length human APLNR; test: FACS, 10 µg/mL antibody, HEK293/CRE-luc/hAPLNR cells; remark: listed apart in the source
full-length human APLNR [7] = molecular target: T1, full-length human APLNR; test: cell-based or functional assay; remark: listed apart in the source
[8] = molecular target: T3, human Apelin receptor (hAPLNR) in PathHunter eXpress AGTRL1 CHO-K1 β-Arrestin cells (human, UniProt P35414 1-380); test: cell-based or functional assay
T3 sequence: T1 sequence

full-length human APLNR [9] = molecular target: T1, full-length human APLNR; test: cell-based or functional assay; remark: listed apart in the source
full-length human APLNR [10] = molecular target: T1, full-length human APLNR; test: cell-based or functional assay; remark: listed apart in the source

% Inhibition at 100 nM antibody, in the presence of 100 ρM Apelin (at 5 µM Forskolin) (full-length human APLNR [1]): 98%
IC50 [M], in the presence of 100 ρM Apelin (at 5 µM Forskolin) (full-length human APLNR [1]): 4.2e-09 M
Inhibiting IC50 (M), pERK/total ERK assay, CHO/hAPLNR cells (full-length human APLNR [2]): 2.09e-07 M
Binding Ratio of Geom. Mean to Unstained Cells (full-length human APLNR [3]): 2860 fold
Binding Ratio of Geom. Mean to Unstained Cells [4]: 678 fold
B1: H2aM9232N (antibody, V domains shown)
VH: QVKLVESGGGVVQPGRSLRLSCAASGFTFSNYVIHWVRQAPGKGLEWVAVIWYDGSNKYYADSVKGRFTISRDNSKNTLYLQMNSLRAEDTAVYYCARDRVVRGVDYYYYYGLDVWGQGTSVTVSS
VL: EIVMTQSPATLSVSPGERATLSCRASQSVRSNLAWYQQKPGQAPRLLIYGASSRATGIPARFSGTGSGTEFTLTISSLQSDDFAVYYCQQYNKWPRTFGQGTKVEIK
notes: Human variable domains, mouse IgG2a Fc

% Inhibition at 100 nM antibody, in the presence of 100 ρM Apelin (at 5 µM Forskolin) (full-length human APLNR [1]): 83%
IC50 [M], in the presence of 100 ρM Apelin (at 5 µM Forskolin) (full-length human APLNR [1]): 3e-09 M
Binding Ratio of Geom. Mean to Unstained Cells (full-length human APLNR [3]): 2180 fold
Binding Ratio of Geom. Mean to Unstained Cells [4]: 1310 fold
B2: H1M9207N (antibody, V domains shown)
VH: EVQLVESGGGLAQPGGSLRLSCAASGFTFSNYWMSWVRQAPGKGLEWVANIKQDGSEKYYLESVKGRFTISRDNAKNLLYLQMNSLRAEDTAVFYCARPGLLRFLEPGRRYYSGMNVWGQGTTVTVSS
VL: DIQLTQSPSFLSASVGDRVTITCWASQGIRSYLAWYQQKPGKAPKLLIYAASTLQSGVPSRFSGSGSGTEFTLTISSLQPEDFATYYCQQFNSYPWTFGQGTKVEIK
notes: Human variable domains, mouse IgG1 Fc (H1M prefix)

Binding Ratio of Geom. Mean to Unstained Cells [5]: 2 fold
Binding Ratio of Geom. Mean to Unstained Cells (full-length human APLNR [6]): 3 fold
B3: H4H9101P (antibody, V domains shown)
VH: QVQLVQSGAEVKKPGASVEVSCKASGYTFTDYYIHWIRQAPGQGLEWMGWINPDSGRTNYAQKFQVRVTMTRDTSITTAYMELNRLKSDDTAVYYCARGPLRGYSGYDFFDYWGQGTLVTVSS
VL: B2 VL with R30S, T85S, Y87F, F91L, Y94N, W96R
notes: Fully human, human IgG4 Fc

Binding Ratio of Geom. Mean to Unstained Cells [5]: 2 fold
Binding Ratio of Geom. Mean to Unstained Cells (full-length human APLNR [6]): 3 fold
B4: H4H9103P (antibody, V domains shown)
VH: EVQLVESGGGLVQPGRSLRLSCAASGFTFDDYAMHWVRQVPGKGLEWVSGITWNSGDIGYADSVKGRFTISRDNAKNSLYLQMNSLRAEDTALYYCTKDKDSSGYYGIDVWGQGTTVTVSS
VL: DIQMTQSPSSVSASVGDRVTITCRASQGIRTWLAWYQQKPGKAPKLLIYAASSLQSGVPSRFSGSESGTDFTLTISSLQPEDFATYYCQQANSFPFTFGPGTKVDIK
notes: Fully human, human IgG4 Fc

Binding Ratio of Geom. Mean to Unstained Cells [5]: 2 fold
Binding Ratio of Geom. Mean to Unstained Cells (full-length human APLNR [6]): 2 fold
B5: H4H9112P (antibody, V domains shown)
VH: B3 VH
VL: DIQMTQSPSSLSAFVGDRVTITCRASQSISSYLNWYQQKPGKAPKLLIYTASTLQRGVPSRFRGSGSGTDFTLTISSLQPEDFATYYCHQTYSIPITFGQGTRLEIK
notes: Fully human, human IgG4 Fc

Binding Ratio of Geom. Mean to Unstained Cells [5]: 1 fold
Binding Ratio of Geom. Mean to Unstained Cells (full-length human APLNR [6]): 2 fold
B6: H4H9104P (antibody, V domains shown)
VH: QVQLVESGGDLVKPGGSLRLSCAASGFTFSDYYMNWIRQAPGKGLEWVSYISSSGSTIHYADSVKGRFTISRDNAKNLVYLRMNSLRAEDTAVYFCAREREVHDYSDPYFFFYGMDVWGQGTTVTVSS
VL: DIQMTQSPSSVSASVGDRVTITCRASQDVSSWLAWYQHKPGKAPKLLIFAASSLQSGVPSRFSGSGSGTDFTLTISSLQSEDFATYYCQQANSFPLTFGGGTKVEIK
notes: Fully human, human IgG4 Fc

% Activation at 500 nM mAb (at 7.5 uM Forskolin) (full-length human APLNR [7]): 21%
% Inhibition at 100 nM antibody, in the presence of 100 ρM Apelin (at 5 µM Forskolin) (full-length human APLNR [1]): 11%
Activating EC50 (M), pERK/total ERK assay, CHO/hAPLNR cells (full-length human APLNR [2]): 4.79e-08 M
B7: H2aM9222N (antibody, V domains shown)
VH: EVQLVESGGGLVQPGGSLRLSCAASGFTFSNYWMSWVRQAPGKGLEWVANIKQDGSERYYVGSVKGRFTISRGDAENSLYLQMNSLRAEDTAVYYCARDRFGYSAYDKGVRYYYGMDVWGQGTTVTVSS
VL: DIQMTQSPSSLSASVGDRVTITCRASQGIRNDLGWYQQKPGKAPKRLIYAASSLQSGVPSRFSGSGSGTEFTLTISSLQPEDFATYYCLQHNSYPRTFGQGTKVEIK
notes: as for B1

% Activation at 500 nM mAb (at 7.5 uM Forskolin) (full-length human APLNR [7]): 52%
% Inhibition at 100 nM antibody, in the presence of 100 ρM Apelin (at 5 µM Forskolin) (full-length human APLNR [1]): 49%
IC50 [M], in the presence of 100 ρM Apelin (at 5 µM Forskolin) (full-length human APLNR [1]): 2.4e-09 M
Binding Ratio of Geom. Mean to Unstained Cells (full-length human APLNR [3]): 2940 fold
Binding Ratio of Geom. Mean to Unstained Cells [4]: 658 fold
B8: H2aM9230N (antibody, V domains shown)
VH: B7 VH with N31S, Y32F, A40V, E46Q, R58K, G62D, G73D, D74N, E76K, A105V
VL: B7 VL with A13V, S77G, P80S, N92K
notes: as for B1

Binding Ratio of Geom. Mean to Unstained Cells [5]: 1 fold
Binding Ratio of Geom. Mean to Unstained Cells (full-length human APLNR [6]): 2 fold
B9: H4H9113P (antibody, V domains shown)
VH: B3 VH
VL: B7 VL with K45N, Q79H, Y87S, Y94F, R96L, Q100G
notes: Fully human, human IgG4 Fc

% Activation at 500 nM mAb (at 7.5 uM Forskolin) (full-length human APLNR [7]): 45%
% Inhibition at 100 nM antibody, in the presence of 100 ρM Apelin (at 5 µM Forskolin) (full-length human APLNR [1]): 33%
IC50 [M], in the presence of 100 ρM Apelin (at 5 µM Forskolin) (full-length human APLNR [1]): 4.3e-09 M
Binding Ratio of Geom. Mean to Unstained Cells (full-length human APLNR [3]): 4100 fold
Binding Ratio of Geom. Mean to Unstained Cells [4]: 1440 fold
B10: H2aM9227N (antibody, V domains shown)
VH: B7 VH with N31S, Y32F, A40V, R58K, G62D, G73D, D74N, E76K, A105F
VL: B7 VL with A13V, A51T, S77G
notes: as for B1

% Activation at 500 nM mAb (at 7.5 uM Forskolin) (full-length human APLNR [7]): 49%
% Inhibition at 100 nM antibody, in the presence of 100 ρM Apelin (at 5 µM Forskolin) (full-length human APLNR [1]): 26%
IC50 [M], in the presence of 100 ρM Apelin (at 5 µM Forskolin) (full-length human APLNR [1]): > 1e-07 M
Activating EC50 (M), pERK/total ERK assay, CHO/hAPLNR cells (full-length human APLNR [2]): 6.41e-08 M
Binding Ratio of Geom. Mean to Unstained Cells (full-length human APLNR [3]): 1490 fold
Binding Ratio of Geom. Mean to Unstained Cells [4]: 108 fold
B11: H2aM9228N (antibody, V domains shown)
VH: B7 VH with Q39L, E76K, Y106F
VL: B7 VL
notes: as for B1

% Activation at 500 nM antibody or Apelin-antibody fusion [8]: 2%
% Inhibition at 100 nM mAb, in the presence of 100 ρM Apelin (at 7.5 µM Forskolin) (full-length human APLNR [9]): 3%
B12: H4H9093P (antibody, V domains shown)
VH: EVQLVESGGGLVKPGGSLRLSCAASGITFSNAWMSWVRQAPGKGLEWVGRFKGKADGGTVDYAAPVKGRFTISRDDSKNTLYLQMNSLKNEDTAVYYCTTGRITMVRGVLGYWGQGTLVTVSS
VL: not shown

% Inhibition at 100 nM mAb, in the presence of 100 ρM Apelin (at 10 µM Forskolin) (full-length human APLNR [10]): 16%
IC50 [M], in the presence of 100 ρM Apelin (at 10 µM Forskolin) (full-length human APLNR [10]): 5.9e-09 M
B13: H4H9209N (antibody, V domains shown)
VH: EVQLLESGGGLVQPGGSLRLSCAASGFTFSNYAMNWVRQAPGRGLEWVSAIHYDGSNSYYADSVKGRFTISRDNSKNTLYLQMNSLRAEDTAIYYCAILSRVYWGQGTLVTVSS
VL: DIQMTQSPSSLSASVGDRVTITCRASQGINNYLAWFQQKPGKAPKSLIYATSSLQSGVPSKFSGSGSGTDFTLTISSLQPEDFATYYCQQYNSYPLTFGGGTKVEIK

% Inhibition at 100 nM antibody, in the presence of 100 ρM Apelin (at 5 µM Forskolin) (full-length human APLNR [1]): 7%
B14: H2aM9209N (antibody, V domains shown)
VH: B13 VH
VL: B13 VL
